Values joined by “and” are separate entries in the source; they are usually repeats but may differ in a detail not shown here. Identical values can stand only once. Like-named read-outs stand apart in the source and are kept apart here. Peptide text beside a SMILES is read from it.
Key:
[1] = small library of ^99mTc-labeled analogs with acyclic tetraamine chelator; cited from earlier work
From the text: Earlier work on the development of GRPR-antagonists generated a solid body of structure-activity relationships data, pinpointing at important factors for sustained in vivo action. […] Metabolic stability could be enhanced by suitable structural modifications, including DAla^11/Gly^11 in BBN-based or DAla^24/Gly^24 in GRP-based peptide ligands.

[2] = Biodistribution in SCID mice bearing PC-3 xenografts; type: in vivo; conditions: female, mouse, pancreas, total radioactivity, average ± sd; for tissue uptake at 4 h: 4 h pi; for tissue uptake at 24 h: 24 h pi, n = 4, read-out: Pancreatic uptake, 24 h pi
Method: A suspension containing freshly harvested human PC-3 cells (≈150 μL of a ≈1.2 × 10^7 cells) was subcutaneously injected in the flanks of female SCID mice (15 ± 3 g, six weeks of age at the day of arrival, NCSR “Demokritos” Animal House Facility).
Animals were euthanized at 4 and 24 h pi and dissected; samples of blood, tumors and organs of interest were collected, weighed and measured for radioactivity in the gamma counter. Intestines and stomach were not emptied of their contents. Data was calculated as percent injected dose per gram tissue (%ID/g) with the aid of standard solutions and represent mean values±sd, n = 4.

[3] = In vivo stability in peripheral mouse blood (radio-HPLC); design: species or system mice; conditions: blood 5 min pi; for Intact radiotracer in mouse blood, representative radiochromatogram, PA-coinjection: coinjection of 300 µg phosphoramidon (PA), HPLC system 2, single representative sample (Figure 3c,d); for Intact radiotracer in mouse blood, representative radiochromatogram: without PA-coinjection, HPLC system 2, single representative sample (Figure 3a,b); for Intact radiotracer in peripheral mouse blood: healthy male Swiss albino mice, iv 3 nmol peptide, without PA, radio-HPLC, mean ± sd, n = 3
Method: For stability experiments (approved protocol # 1609, Prefecture of Attica), healthy male Swiss albino mice (30 ± 5 g, NCSR “Demokritos” Animal House Facility) were used. The radioligand, ^111In-SB3 or ^111In-SB4, was injected as a 100 μL bolus (11–22 MBq, 3 nmol total peptide) in the tail vein together with injection solution (100 µL; control) or with a phosphoramidon (PA)-solution (100 µL injection solution containing 300 µg PA). Animals were euthanized and blood (0.5–1 mL) was directly withdrawn from the heart and transferred in a pre-chilled EDTA-containing Eppendorf tube on ice. Blood samples were centrifuged for 10 min at 2000 g/4 °C and plasma was collected. After addition of an equal volume of ice-cold MeCN the mixture was centrifuged for 10 min at 15,000 g/4 °C. The supernatant was concentrated under a N2-flux at 40 °C to 0.05-0.1 mL, diluted with saline (0.4 mL), filtered through a 0.22 μm Millex GV filter (Millipore, Milford, USA) and analyzed by RP-HPLC. The Symmetry Shield RP18 (5 μm, 3.9 mm × 20 mm) column was eluted at a flow rate of 1.0 mL/min with the following linear gradient (system 2): 0% B at 0 min to 10% B in 10 min and then in 40 min to 30% B; A = 20 mM ammonium acetate and B = MeCN. The tR of the intact radiopeptide was determined by coinjection with the ^111In-SB3 or ^111In-SB4 reference in the HPLC.

GRPR = GRPR (Homo sapiens, UniProt P30550); assay: biochemical
Method: Human androgen-independent prostate adenocarcinoma PC-3 cells endogenously expressing the human GRPR (LGC Promochem, Teddington, UK) were used in the present study [24]. Cells were cultured in Roswell Park Memorial Institute (RPMI)-1640 medium, supplemented with 10% heat-inactivated fetal bovine serum (FBS), 100 U/mL penicillin and 100 µg/mL streptomycin, and kept in a controlled humidified atmosphere containing 5% CO2 at 37 °C. Passages were performed weekly using a trypsin/EDTA (0.05%/0.02% w/v) solution. All culture media were purchased from Gibco BRL, Life Technologies and supplements were provided by Biochrom KG Seromed.
For the assay, triplicates per concentration point (concentration range: 10^−13–10^−6 M) of each test peptide were incubated together with the radioligand (~40,000 cpm per assay tube, at a 50 pM concentration) in PC-3 cell-membrane homogenates in a total volume of 300 μL binding buffer (BB, 50 mM HEPES pH 7.4, 1% BSA, 5.5 mM MgCl2, 35 μM bacitracin) for 1 h at 22 °C in an Incubator-Orbital Shaker (MPM Instr. SrI, Italy). Binding was interrupted by ice-cold washing buffer (WB, 10 mM HEPES pH 7.4, 150 mM NaCl) and rapid filtration (Whatman GF/B filters presoaked in BB) on a Brandel Cell Harvester (Adi Hassel Ing. Büro, Munich, Germany). Filters were washed with ice-cold WB and counted in an automatic well-type gamma counter (NaI(Tl) 3´´-crystal, Cobra Packard Auto-Gamma 5000 series instrument). The half maximal inhibitory concentration (IC50) values were calculated using nonlinear regression according to a one-site model applying the PRISM 2 program (Graph Pad Software, San Diego, CA) and represent the mean±sd from three independent experiments performed in triplicate.

[4] = iv, with phosphoramidon (PA), 300 µg co-injected (NEP-inhibition), coinjection of 300 µg PA, n = 4, read-out: Pancreatic uptake, 4 h pi, PA-coinjection
[5] = iv 10 pmol peptide, control, n = 4, read-out: Pancreatic uptake, 4 h pi

Sequence of GRPR (P30550 whole entry): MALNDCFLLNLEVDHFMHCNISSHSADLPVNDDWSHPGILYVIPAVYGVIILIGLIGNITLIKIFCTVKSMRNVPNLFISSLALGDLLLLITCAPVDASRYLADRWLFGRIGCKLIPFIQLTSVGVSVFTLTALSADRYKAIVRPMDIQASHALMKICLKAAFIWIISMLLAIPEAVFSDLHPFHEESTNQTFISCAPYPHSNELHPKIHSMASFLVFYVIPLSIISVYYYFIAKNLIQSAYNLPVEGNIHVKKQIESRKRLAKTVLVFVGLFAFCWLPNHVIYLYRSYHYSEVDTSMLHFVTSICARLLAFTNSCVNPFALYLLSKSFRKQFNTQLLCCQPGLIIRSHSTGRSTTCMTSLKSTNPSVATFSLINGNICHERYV

For “^99mTc-[N4-p-aminomethylaniline-diglycolic acid-DPhe^6,DAla^11,Leu^13-NHEt]BBN(6-13)”, the “Metabolic stability, rank within the library” value [1] is given as “highest metabolic stability”.
Work on CCNC(=O)[C@H](CC(C)C)NC(=O)[C@H](Cc1c[nH]cn1)NC(=O)[C@@H](C)NC(=O)[C@@H](NC(=O)[C@H](C)NC(=O)[C@H](Cc1c[nH]c2ccccc12)NC(=O)[C@H](CCC(N)=O)NC(=O)[C@@H](Cc1ccccc1)NC(=O)COCC(=O)Nc1ccc(CNC(=O)CN2CCN(CC(=O)O)CCN(CC(=O)O)CCN(CC(=O)O)CC2)cc1)C(C)C [^111In-SB4, metal not drawn] (HELM PEPTIDE1{[O=C(O)CN1CCN(CC(=O)O)CCN(CC(=O)NCc2ccc(NC(=O)COCC(=O)[*:2])cc2)CCN(CC(=O)O)CC1].[dF].Q.W.A.V.[dA].H.L.[CCN[*:1]]}$$$$V2.0) yielded a tissue uptake at 4 h [2, 4] of 4.9 ± 0.7 %ID/g, a tissue uptake at 24 h ([2]; iv 10 pmol peptide) of 0.1 %ID/g and a tissue uptake at 4 h [2, 5] of 1.6 ± 0.8 %ID/g. The “Intact radiotracer in mouse blood, representative radiochromatogram, PA-coinjection” value [3] was 99.7 % intact radiotracer, the “Intact radiotracer in mouse blood, representative radiochromatogram” value [3] was 77 % intact radiotracer and the “Intact radiotracer in peripheral mouse blood” value [3] was 80 ± 3 % intact.
In the case of CCNC(=O)[C@H](CC(C)C)NC(=O)[C@H](Cc1c[nH]cn1)NC(=O)[C@@H](C)NC(=O)[C@@H](NC(=O)[C@H](C)NC(=O)[C@H](Cc1c[nH]c2ccccc12)NC(=O)[C@H](CCC(N)=O)NC(=O)[C@@H](Cc1ccccc1)NC(=O)COCC(=O)Nc1ccc(CNC(=O)CN2CCN(CC(=O)O)CCN(CC(=O)O)CCN(CC(=O)O)CC2)cc1)C(C)C [SB4, DOTA-p-aminomethylaniline-diglycolic acid-DPhe-Gln-Trp-Ala-Val-DAla-His- Leu-NHEt] (HELM PEPTIDE1{[O=C(O)CN1CCN(CC(=O)O)CCN(CC(=O)NCc2ccc(NC(=O)COCC(=O)[*:2])cc2)CCN(CC(=O)O)CC1].[dF].Q.W.A.V.[dA].H.L.[CCN[*:1]]}$$$$V2.0), the IC50 (GRPR) is reported as 0.0112 µM and 0.0107 µM.
In the case of CCNC(=O)[C@H](CC(C)C)NC(=O)[C@H](Cc1c[nH]cn1)NC(=O)CNC(=O)[C@@H](NC(=O)[C@H](C)NC(=O)[C@H](Cc1c[nH]c2ccccc12)NC(=O)[C@H](CCC(N)=O)NC(=O)[C@@H](Cc1ccccc1)NC(=O)COCC(=O)Nc1ccc(CNC(=O)CN2CCN(CC(=O)O)CCN(CC(=O)O)CCN(CC(=O)O)CC2)cc1)C(C)C [^111In-SB3, metal not drawn], the tissue uptake at 4 h [2, 4] is reported as 33.1 ± 6.2 %ID/g, the tissue uptake at 24 h ([2]; iv 10 pmol peptide) is reported as 0.6 ± 0.1 %ID/g and the tissue uptake at 4 h [2, 5] is reported as 3.5 ± 0.4 %ID/g. For the same compound, the “Intact radiotracer in mouse blood, representative radiochromatogram, PA-coinjection” value [3] was 98.9 % intact radiotracer, the “Intact radiotracer in mouse blood, representative radiochromatogram” value [3] was 55 % intact radiotracer and the “Intact radiotracer in peripheral mouse blood” value [3] was 56 ± 2 % intact.
For CCNC(=O)[C@H](CC(C)C)NC(=O)[C@H](Cc1c[nH]cn1)NC(=O)CNC(=O)[C@@H](NC(=O)[C@H](C)NC(=O)[C@H](Cc1c[nH]c2ccccc12)NC(=O)[C@H](CCC(N)=O)NC(=O)[C@@H](Cc1ccccc1)NC(=O)COCC(=O)Nc1ccc(CNC(=O)CN2CCN(CC(=O)O)CCN(CC(=O)O)CCN(CC(=O)O)CC2)cc1)C(C)C [SB3], the IC50 (GRPR) was 0.0046 ± 0.0003 µM.
